Experiment [1] concerns the target rituximab, galactosylated fucosylated (G2F) glycoform (human). Put plainly: SPR; KD1. In general terms: SPR reads the build-up and loss of mass on a sensor chip optically.
The target of experiment [2] is rituximab, galactosylated afucosylated (G2) glycoform (human). Put plainly: SPR; KD1.
The target in experiment [3] is rituximab, galactosylated fucosylated (G2F) glycoform (human). The experiment can be described thus: SPR; KD2 (second site).
Experiment [4] concerns the target rituximab, galactosylated afucosylated (G2) glycoform (human). Put plainly: SPR; KD2 (second site).

Sequence of rituximab, galactosylated fucosylated (G2F) glycoform (human) (main, as listed by the source, chain 1 of 2): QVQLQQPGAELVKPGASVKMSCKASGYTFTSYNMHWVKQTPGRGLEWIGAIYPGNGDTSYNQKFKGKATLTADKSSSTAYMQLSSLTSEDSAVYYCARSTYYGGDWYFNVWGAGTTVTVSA
Sequence of rituximab, galactosylated fucosylated (G2F) glycoform (human) (partner, as listed by the source, chain 2 of 2): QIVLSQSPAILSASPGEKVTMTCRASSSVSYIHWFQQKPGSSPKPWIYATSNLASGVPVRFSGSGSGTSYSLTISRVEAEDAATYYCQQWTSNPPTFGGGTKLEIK
Sequence of rituximab, galactosylated afucosylated (G2) glycoform (human) (main, as listed by the source, chain 1 of 2): as the sequence (main, as listed by the source, chain 1 of 2) above
Sequence of rituximab, galactosylated afucosylated (G2) glycoform (human) (partner, as listed by the source, chain 2 of 2): as the sequence (partner, as listed by the source, chain 2 of 2) above

As a reminder, the Kd is the free concentration of one partner at which half of the binding sites on the other are occupied at equilibrium, for simple one-to-one binding. The low end stands for tighter binding, the high end for weaker binding. Regarding FcγRIIIA(V) tetramer, the Kd in experiment [1] was determined as 55.2 nM; in experiment [2], 29.9 nM; in experiment [3], 2.29 nM; in experiment [4], 2.3 nM.
